Laboratory results taken from publication PMC5028754, “Structural studies of the yeast DNA damage-inducible protein Ddi1 reveal domain architecture of this eukaryotic protein family” (Scientific Reports, 2016).

Assays:
bovine ubiquitin = target: T1, bovine ubiquitin (bovine, UniProt P0CG53 1-76); experiment: ITC; ubiquitin or K48-Ub2 injected from the syringe into the Ddi1 construct in the sample cell; 50 mM HEPES, pH 7.4, 150 mM NaCl, 25 °C; VP-ITC; one-site model varying N, Kd and ΔH; full-length Ddi1 with ubiquitin also fitted to a two-sites model with N fixed to 1.0; conditions: both partners purified
T1 construct: ubiquitin, bovine (cut product of the ubiquitin precursors); source: bought: Sigma, cat. no; U6253

[1] = target: the molecule itself; experiment: crystal structure; Ddi1 RVP 185-325, 1.8 Å; crystallized in 0.1 M phosphate-citrate, pH 4.2, 0.4 M NaCl, 20% PEG 8000; two chains in the asymmetric unit

| Binder | Kd (bovine ubiquitin) [µM] | stoichiometry N [1] |
| --- | --- | --- |
| Ddi1 RVP-UBA (180-428) (domain or fragment, S. cerevisiae, UniProt P40087 180-428, looked up, Ddi1 of Saccharomyces cerevisiae, residues 180-428 (RVP to UBA, lacks the UBL), cloned into pET16b; Contains the RVP domain; also called RVP-UBA construct (without the UBL)) QQAIDEQLRNAIEYTPEMFTQVPMLYINIEINNYPVKAFVDTGAQTTIMSTRLAKKTGLSRMIDKRFIGEARGVGTGKIIGRIHQAQVKIETQYIPCSFTVLDTDIDVLIGLDMLKRHLACVDLKENVLRIAEVETSFLSEAEIPKSFQEGLPAPTSVTTSSDKPLTPTKTSSTLPPQPGAVPALAPRTGMGPTPTGRSTAGATTATGRTFPEQTIKQLMDLGFPRDAVVKALKQTNGNAEFAASLLFQ | 43 | – |
| Ddi1 UBL-RVP (1-325) (domain or fragment, S. cerevisiae, UniProt P40087 1-325, looked up, Contains the RVP domain; also called UBL-RVP construct (without the UBA)) MDLTISNELTGEIYGPIEVSEDMALTDLIALLQADCGFDKTKHDLYYNMDILDSNRTQSLKELGLKTDDLLLIRGKISNSIQTDAATLSDEAFIEQFRQELLNNQMLRSQLILQIPGLNDLVNDPLLFRERLGPLILQRRYGGYNTAMNPFGIPQDEYTRLMANPDDPDNKKRIAELLDQQAIDEQLRNAIEYTPEMFTQVPMLYINIEINNYPVKAFVDTGAQTTIMSTRLAKKTGLSRMIDKRFIGEARGVGTGKIIGRIHQAQVKIETQYIPCSFTVLDTDIDVLIGLDMLKRHLACVDLKENVLRIAEVETSFLSEAEIPK | 310 | – |
| full-length yeast Ddi1 (natural protein, S. cerevisiae, UniProt P40087 1-428, looked up, Ddi1 of Saccharomyces cerevisiae, full length, cloned into pET16b; ITC concentration calculated to monomer; also called Ddi1 FL; DNA damage-inducible protein Ddi1) MDLTISNELTGEIYGPIEVSEDMALTDLIALLQADCGFDKTKHDLYYNMDILDSNRTQSLKELGLKTDDLLLIRGKISNSIQTDAATLSDEAFIEQFRQELLNNQMLRSQLILQIPGLNDLVNDPLLFRERLGPLILQRRYGGYNTAMNPFGIPQDEYTRLMANPDDPDNKKRIAELLDQQAIDEQLRNAIEYTPEMFTQVPMLYINIEINNYPVKAFVDTGAQTTIMSTRLAKKTGLSRMIDKRFIGEARGVGTGKIIGRIHQAQVKIETQYIPCSFTVLDTDIDVLIGLDMLKRHLACVDLKENVLRIAEVETSFLSEAEIPKSFQEGLPAPTSVTTSSDKPLTPTKTSSTLPPQPGAVPALAPRTGMGPTPTGRSTAGATTATGRTFPEQTIKQLMDLGFPRDAVVKALKQTNGNAEFAASLLFQ | 320 | – |
| Ddi1 RVP (residues 185-325) (domain or fragment, S. cerevisiae, UniProt P40087 185-325, looked up, MALDI-TOF 16,320 Da (predicted 16,313 Da); also called RVP domain; Ddi1 retroviral protease-like domain; source: E. coli BL21(DE3), purified (glutathione-sepharose, 3C cleavage, gel filtration); not shown: GST, N-terminal, cleaved) EQLRNAIEYTPEMFTQVPMLYINIEINNYPVKAFVDTGAQTTIMSTRLAKKTGLSRMIDKRFIGEARGVGTGKIIGRIHQAQVKIETQYIPCSFTVLDTDIDVLIGLDMLKRHLACVDLKENVLRIAEVETSFLSEAEIPK | – | 2 |
